Assay: yeast display, Sf9 membrane polyspecificity reagent, FACS + sequencing; frameworks hold sequencing errors
In short: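 Polyreactivity labels are assigned by the sorting gate from which each nanobody was recovered. The gates were low and high (top ~1%), set on anti-HA fluorescence for expression and streptavidin fluorescence for reagent binding. Before sorting, galactose-induced (36–48 hours) yeast display cells were stained for 1 hour at 4 °C with 10% biotinylated, detergent-solubilized Sf9 membrane reagent.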

Sequence | polyreactivity (PSR sort gate)
QVQVVESGGGLVQAGGSLRLSCAASGFIFNTHAMGWYRQAPGKERELVAAITWTGDSTYYADSVKGRFTISRDYAKNTVYLQMNSLKPEDTAVYYCNAATGDWETSIWTYPFWAEMYYWGQGTQVNVSS | low polyreactivity
QVQVVESGGGLVQAGGSLRLSCAASGFIFRYYAMGWYRQAPGKEREFVAAISTSAGSTYYADSVKGRFTISRDNAKNTVYLQMNSLKPEDTAVSYCAAEYWRRASYNYWGQGTQVTVSS | high polyreactivity
QVQVVESGGGLVQAGGSLRLSCAASGFTYGNNGMGWYRQAPGKERELVATISWSGGSTYADSVKGRFTISRDNAKNTVYLQMNSLKPEDTAVYYCAARYFVYYQEVDYWGQGTQVTVSS | low polyreactivity
QVQVVESGGGLVQAGGSLRLSCAASGLTYSYYTMGWYRQAPGKERELVAAITSSSGRTYYADSVKGRITISRDNAKNTVYLQMNSLKPEDTAVYYCAARWSPYDYWGQGTQVTVSS | low polyreactivity
QVQVVESGGGLVQAGGSLRLSCAASGRIFANNAMGWYRQAPGKERELVAAITASSGSTYYADSVKGRFTISRDNAKNTVYFQMNSLKPEDTAFYYCAATLRWGFRWYFGFDYWGQGTQVTVSS | high polyreactivity
QVQVVESGGGLVQAGGSLRLSCAASGRIFPYYTMGWYRQAPGKERDLVAAISRRGSSTYYADSVKGRFTISRDNAKNTVYLQMNSLKPEDTAVYYCAADRGGYTRTGEYDYWGQCTQVTVSS | high polyreactivity
QVQVVESGGGLVQAGGSLRLSCAASGSIFKFNAMGWYRQAPGKERELVAAISYSGGNTDYADSVKGRFTISRDNAKNTVYLQMNSLKPEDTAVYYCAATSYLVLTLEYDYWGQGTQVTVSS | low polyreactivity
QVQVVESGGGLVQAGGSLRLSCAASGSIFSYNAMGWYRQAPGKERELVATITWSAGSTYYADSVKGRFTISRDNAKNPVYLQMNSLKPEDTAVYYCAKRARESSSVSRVNYWFDYWGQGTQVTVSS | low polyreactivity
QVQVVESGGGLVQAGGSLRLSCAASGSIFTYYAMGWYRQAPGKERELVAAINWSGASTYYADSVKGRFTISRDNAKNTVYLQMNSLKPEDTAVYYCAGYGYWGQGTQVTVSS | high polyreactivity
QVQVVESGGGLVQAGGSLRLSCAASGSSFGVNAMGRYTQAPGKERELVASITWSGDNTYYADSVKGRFTISRDNAKNTVYLQMNSLKPEDTAVYYCAATIWIAYRGWYSDYNYWGQGTQVTVSS | low polyreactivity
QVQVVESGGGLVQAGGSLRLSCAASGSTCYFNAMGWYRQAPGTERELVAAIEWSGGSTYYADSVKGRFTISRDNAKNTVYLQMTSLKPEDTAVYYCNRRDVIFLTGPPQYIFPTYDYWGQGTQVTVSS | low polyreactivity
QVQVVESGGGLVQAGGTLRLSCAASGFILPHYTMGWYRQAPAKERELVAAITSGVSTYYADSVKGRFTISRDNAKNTVYLQMNSLKTEDTAVYYCNALATYIGYKYDYWGQGTQVTVSS | low polyreactivity
QVQVVESGGGLVQEGGSHRISCAASGRIFFTNAMGWSRQAPGKERELVAAINDVGSTYYADSVKGRFTISRDNAKNTVYLQLNSLKAEDTAVYYCAVQAYGRGRSLKMYYWRQGTQVTVSS | high polyreactivity
QVQVVESVGGLVQAGGILRLSCAASGRTFRGNAMGWYRQAPGKERELVAAISSSGARTYYADSVKGRFTISRDNAKNTVYLQMNSLKPEDTAVYYCAAVYTDGALQGYDYWGQGTQVTVSS | low polyreactivity
QVRLVESGGGLDQAGGSLRLSSAASGRIFNRNAMGWYRQAPGKARELVAAINRGGSTNYADSVKGRFTISRDNAKNTVYLQLNRLKPEDTAVYYCAAELLYATLWRRYSGYYYWGQGTQVTVSS | high polyreactivity
QVRLVESGGGLGQAGGSLRLSCAASGPIFDTNAMGWYRQAPGKERELVAAISYIGGGTYYADSVKGRFTISRDNAKNTVYLQMNSLKPEDTAVYYCAAEQIYVFFGDWMEYWGQGTQVTVSS | low polyreactivity
QVRLVESGGGLVQAGGSLRLSCAASGRIFQYYSMGWYRQAPGKERELVASITSGGGSTYYADSVKGRFTISRDNAKNTVYLQMNSLKPEDTAVYYCNARWYGLSTRYDYWGQGTQVTVSS | low polyreactivity
QVRLVESGGGLVQAGGSLRLSCAASGSIFQYYVMGWYRQAPGKERELVAAISRNGGRTYYADSVKGRFTISRDNAKNTVYLQMNSLKPEDTAVYYCAADSIPHRDNYWGQGTQVTVSS | high polyreactivity
QVRLVESGGGLVQAGGSLRLSCAASGSTFPYYDMGWYRQAPGKERELVAAITWSSGSTYYADSVKGRFTISRDNAKNTVYLQMNSLKPEDTAVYYCAAELYSYREDYGAHYAYEYWGQGTQVTVSS | low polyreactivity
QVRLVESGGGLVQAGGSLRLSCAASGSTFVYYAMGRYRQAPGNERELVAAITSGDSTYYADSVKGRFTISRDNAKNTVYLQMNSLKPEDTAVYYCAKRISYLPVEMDYWGQGTQVSVSS | low polyreactivity
QYQLVESGGGLVQAGGRLRLSCAASGSIFSNYAMGWYRQAPGKERQFVAAISGGGGSTYYADSVKGRFTISRDNANNTVYLQMNSLKPEDTAVYYCARVRYYGALKLYAYDHWGQGTQVTVSS | high polyreactivity
RVQLPESGGGLVQAGGSLRLTCAASGTIFIRGDMGWYRQSPGKEREFVATIDTGSNTYYADSEKGRFTISRDNAKNAVYLQMNCLKPGDTAVYYCVVDYQLSGRLRYWGQGTQVTLSS | low polyreactivity
RVQLQESGGGLVQAGGSLRLSCAASGTIFIRGDMGWYRQAPGKEREFVATIDTGSNTYNADSEKGRFTISRDNAKNAVYLQMNCLKPGDTAVYYCVVDYQLSGRLRYWGQGTQVTLSS | low polyreactivity
RVQLVESAGGLLQAGGSLRLSCAASGRTFTLYAMGWDRQAPGKDRELVAAIRWSGSSTYYADSVKGRFTISRDYAKHTVYLQINSLKPEATAVYYCAARAGRYERYGYWGQGTQVTVSS | high polyreactivity
RVQLVESGGGLVQAGGSLRLSCAASGLIFYYNAMVWYRQAPGKERELVAAISTGGSTNYADSVKGRFTISRYNAKNTVYLQMNSLKPEDTAVYYCAAGTRKPYGYKMYYWGQGTQVTVSS | high polyreactivity
RVQLVESGGGLVQAGGSLRLSCAASGSISQGNAMGWYRQAPGKERELVADIRWTSGRTYYADSVKGRFTISRDNAKNTVYLQMNSLKPEDTAVYYCAAYYVYYTPTLIDRDYWGQGNQVTVSS | low polyreactivity
VQLVESGGGLVQAGGSLRLSCAASGRIFSNNAMGWYRQAPGKEREFVAAITTSAGRTYYADSVKGRFTISRDNAKNTVYLQMNSLKPEDTAVYYCAAEPRQYWEYNYWGQGTQVTVSS | high polyreactivity

From the nanobody polyreactivity screen of Harvey et al. (2022)
